{
  "source": "paper PMC5081515",
  "about": "“Crystal structures and inhibition of Trypanosoma brucei hypoxanthine–guanine phosphoribosyltransferase” (Scientific Reports, 2016)",
  "proteins": {"B1": {"name": "TbrHGPRT (Trypanosoma brucei brucei) (protein)", "chain": "MEPACKYDFATSVLFTEAELHTRMRGVAQRIADDYSNCNLKPLENPLVIVSVLKGSFVFTADMVRILGDFGVPTRVEFLRASSYGHDTKSCGRVDVKADGLCDIRGKHVLVLEDILDTALTLREVVDSLKKSEPASIKTLVAIDKPGGRKIPFTAEYVVADVPNVFVVGYGLDYDQSYREVRDVVILKPSVYETWGKELERRKAAGEAKR"}},
  "key": {"[1]": {"substrate": "O=P(O)(O)OC[C@H]1O[C@H](OP(=O)(O)OP(=O)(O)O)[C@H](O)[C@@H]1O", "assay": "purified protein, by the assay type", "settings": "other: 0.03 M phosphate buffer, 0.012 M MgCl2, 1 mM DTT, pH 7.4, 25 °C, bases at 500 μM PRib-PP, PRib-PP at 40 μM guanine"}, "[2]": {"substrate": "O=c1[nH]cnc2nc[nH]c12", "assay": "purified protein, by the assay type", "settings": "other: 0.03 M phosphate buffer, 0.012 M MgCl2, 1 mM DTT, pH 7.4, 25 °C, bases at 500 μM PRib-PP, PRib-PP at 40 μM guanine"}},
  "data": [
    {"protein": "B1", "values": [
      {"measurement": "Km", "setting": "[1]", "result": "103 ± 16", "unit": "µM"},
      {"measurement": "Km", "setting": "[2]", "result": "5.5 ± 0.3", "unit": "µM"},
      {"measurement": "kcat", "setting": "[2]", "result": 17.1, "unit": "s⁻¹"},
      {"measurement": "kcat/Km", "setting": "[2]", "result": "3.1e+06", "unit": "M⁻¹ s⁻¹"}
    ]}
  ]
}
